# Data taken from the supplement of paper PMC9732359.
# ± gives the uncertainty stated by the source.
# Experiment: protein stability index of a GFP-peptide fusion (yeast GPS) (PSI 1-4); higher = more stable; sorted into four equal gates, so the index is relative within each strain
# Conditions: san1∆
# How it was run: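 Tiled 17-residue peptides from yeast proteins were fused downstream of GFP on a plasmid that also expresses Cherry, and the pooled library was carried in yeast. Mid-log cultures grown in leucine-free medium were sorted into four equal gates by GFP/Cherry fluorescence ratio. Plasmids from each gate were PCR-amplified and Illumina-sequenced, and reads were assigned to strains by barcodes. Each peptide's protein stability index is the sum, over gates, of the gate's read frequency multiplied by its gate number.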
row,Sequence,protein stability index
1,FQELDSKKQRNNGSKDH [RPN9],2.67 ± 0.15

# Same assay, conditions: ubr1∆
row,Sequence,protein stability index
1,ERVWNICLYSSFQKNSL [AAR2],2.02 ± 0.034
2,ESCEDILDLKEFDRRIL [RTT102],3.07 ± 0.092
3,ESDAPPKSTAPIFSFGK [YOR098C/NUP1],2.76 ± 0.038
4,ESDYEPNNETSVLSSKP [SIR3],3.01 ± 0.07
5,ESFPDDIPLAKALDNAC [CDC53],2.8 ± 0.045
6,ESIASSNTYKEERSNNL [MCD1],3.39 ± 0.075
7,ESKDLLRASFNKLSSIL [SRB4],1.1 ± 0.094
8,ESLKKELQIFKTANSSS [YIL149C/MLP2],2.61 ± 0.042
9,ESLPQYVDFVPMYKELW [POP4],2.64 ± 0.048
10,ESNNPSHDASRSLASFE [SIR4],3.02 ± 0.17
11,ESSDFGAIILTKMDGHA [SRP54],2.8 ± 0.077
12,ESSELNKDSIEECGRTI [CSN12],3.28 ± 0.15
13,ESYDAALSLHREILCYS [FAS2],2.28 ± 0.017
14,ETAKKITFHPKIRARSI [SMC2],2.85 ± 0.05
15,ETAQAINGWELTKAQKY [RPL17A],3.28 ± 0.043
16,ETDEYISYTSHIEGVVI [RPN1],3.08 ± 0.08
17,ETDHKTNENGETDDNIE [SRB4],3.21 ± 0.089
18,ETEIKDLTQLLEKERSI [SMC4],3.25 ± 0.039
19,ETEQEYSPSNEISISFD [YDL116W/NUP84],2.98 ± 0.048
20,ETIENVKLQMIKFGGLI [ECM29],3.26 ± 0.07
21,ETLGLKYLGLKPGSIDA [FAS1],3.22 ± 0.095
22,ETQVLVSTPEKWDITTR [BRR2],3.21 ± 0.034
23,ETVAKSKNAERKWAARA [RPS8A],3.315 ± 0.021
24,EVAKRLVELMFIRSTNS [FAS1],1.49 ± 0.042
25,EVEKAHPIRLYTRYLDR [PRP8],2.94 ± 0.048
26,EVFSVLGIEAARYSIIR [RPO31],1.59 ± 0.14

row,Sequence,protein stability index
1,EVHDLIGFITSGTYHLN [POP1],2.48 ± 0.11
2,EVKTPKIPLFTFAKSKN [SIR4],2.81 ± 0.042
3,EVLVTPGLEFLDDTTIP [MCD1],3.08 ± 0.059
4,EVQFGLFSPEEVRAISV [RPO21],3.12 ± 0.034
5,EVSGSIQYKKEYEELKE [SMC1],3.35 ± 0.068
6,EVSKDLIAVYYSFGGLL [RPB8],2.72 ± 0.057
7,EVTKLLKNEGIDLDHKR [SMC4],3.55 ± 0.1
8,EVVKSLYDRPLKPDLNK [NAS6],3.42 ± 0.1
9,EVYKAEKDAVSVFGFRT [RPS24A],3.31 ± 0.13
10,EYIDDHRSGKIVVQLNG [RPS22A],2.47 ± 0.23
11,EYRPFSKKVLECLPAEG [DIS3],1.56 ± 0.068
12,EYSRDCFCEDHCDKCSV [RPB3],2.98 ± 0.2
13,FAAILVLLVLPFTDRSV [COB],1.13 ± 0.065
14,FAALSDSYGQGSMTKTW [SSN2],3.2 ± 0.063
15,FAESPFFDKTSNNQVIK [MED6],2.96 ± 0.069
16,FAEYIQANIQLYSIRED [PRE1],2.59 ± 0.091
17,FAFLNAMFFGNYGSSLQ [AAR2],2.56 ± 0.069
18,FAKEKLTKKEKKEANLF [RPL6A],3.14 ± 0.05
19,FAQPVADIENSTSGDPS [SSN2],2.75 ± 0.24
20,FCRDCNNMLYPREDKEN [RPB9],3.08 ± 0.061
21,FDDLEVEELPTFHDYDM [RRP42],2.88 ± 0.043
22,FDKLLNIPRRELKINLP [SRB4],2.12 ± 0.061
23,FDPSKDVLINELLDQVT [CDC53],2.5 ± 0.054
24,FDSLIKVQISKIPILAQ [RPN9],1.96 ± 0.081
25,FDTDWNPHQDLQAQDRA [SNF2],3.35 ± 0.05
26,FDVNTLCLMTWKEVMFD [CDC53],2.85 ± 0.068

row,Sequence,protein stability index
1,FELVHHFFQIDGFNKTF [YML103C/NUP188],2.36 ± 0.065
2,FENVKLLAEYDNIYRNL [MED4],2.31 ± 0.028
3,FEPSISRSNFQGKHTKF [LRP1],3.28 ± 0.094
4,FEYCRIDGSTSHEERIE [ISW2],2.49 ± 0.05
5,FFDPKPFDQNLDSNNNN [SWI1],2.88 ± 0.069
6,FFSSDWRFLQILRNGID [POP1],2.18 ± 0.072
7,FGANQATNTFGSNQQSS [YGR119C/NUP57],2.92 ± 0.073
8,FGSRVMIAKEVKTSPDA [FAS1],3.49 ± 0.2
9,FHESGSQYSTMVNIGLH [RGR1],3.27 ± 0.14
10,FHFAIEQISNNSNQQQN [SIN4],2.9 ± 0.049
11,FHIDHTKPSDLTIKDIV [RPO21],2.8 ± 0.035
12,FHSAVENLVQGNGNVSE [YCG1],3.02 ± 0.12
13,FILIPLYKIFSYALSME [SNU114],1.68 ± 0.031
14,FIRDELDENKWYKFNDD [UBP6],1.97 ± 0.062
15,FITTLLKSLYSFFNISP [SIN4],1.53 ± 0.034
16,FKDETISKKIIGMSLLM [SIR3],3.51 ± 0.058
17,FKLQEEERERKDQYVPE [RPS17A],3.24 ± 0.093
18,FKSALANLEDIIFEIEK [RRP6],2.83 ± 0.12
19,FKVARELKTEAAVLSNL [ITC1],2.86 ± 0.061
20,FLANHKDRLYCGKCHSV [RPS31],2.69 ± 0.082
21,FLDGIYVSHKGFIVEDM [RPL9B],2.66 ± 0.13
22,FLIHSGQPVNDFIDTAT [RPS3],3.04 ± 0.073
23,FLIKASVREINLYMLVT [SSN8],1.44 ± 0.052
24,FLKDADVECIKAKSHFT [YJL039C/NUP192],2.98 ± 0.059
25,FLLHNSEIIDTNTSKQF [SRB8],2.81 ± 0.044
26,FLLNQNKQLSQSVEEKV [YIL149C/MLP2],2.09 ± 0.068

row,Sequence,protein stability index
1,FLNNGEVDSASDFISKL [RPN3],3.29 ± 0.13
2,FLQKFEIAFHLTLIFYD [YML103C/NUP188],1.35 ± 0.052
3,FLRKATAFNKTRGPFHF [RPL16B],3.08 ± 0.033
4,FLRQKICLMTLIETVFV [RPN9],1.94 ± 0.28
5,FLRTMKLTSEETVFNYR [GRR1],3.02 ± 0.052
6,FMSNDGPTLEKYISAEL [SNU114],3.24 ± 0.082
7,FMVRLDSEKHIDFAPTS [RPS9A],2.82 ± 0.047
8,FNAIDLARHLPAELDLR [RPC82],2.99 ± 0.11
9,FNEDQLFSLLELGEQKC [RRP46],2.36 ± 0.062
10,FNGADIRNCATEAGFFA [RPT4],3.22 ± 0.048
11,FNGLKPLIQNSMRTIMK [PRP8],2.56 ± 0.15
12,FNIIREFRSAAGQLALD [YDL116W/NUP84],3.25 ± 0.087
13,FNKTTNIDINNEDENIQ [YJL041W/NSP1],3.2 ± 0.059
14,FNNEAPPQTRKFQPPPG [SMB1],3.13 ± 0.085
15,FNPYGDNGGTILGIAGE [PRE7],3.28 ± 0.064
16,FNRTKGKMVRAQDVALA [PRP8],1.06 ± 0.096
17,FNSVQKKSRSNLSQEND [YAR002W/NUP60],3.12 ± 0.12
18,FNTQQGIKKHSLWRRTV [YDL116W/NUP84],2.49 ± 0.031
19,FNVEYFAKEKLTKKEKK [RPL6A],1.9 ± 0.073
20,FNYSGKDMLYSGITGEC [RET1],2.61 ± 0.06
21,FPEVFQVNIRFLLHNSE [SRB8],2.62 ± 0.17
22,FQDVYDLTGSEPIKEII [FAS1],3.22 ± 0.1
23,FQELDSKKQRNNGSKDH [RPN9],2.37 ± 0.16
